Results on 2 compounds are retold here after patent publication US20110172107A1, “ASSAY FOR IDENTIFYING AGENTS THAT MODULATE EPIGENETIC SILENCING, AND AGENTS IDENTIFIED THEREBY” (FOX CHASE CANCER CENTER, priority 2008, published 2011).

The target in assay [1] is heterochromatin protein 1 gamma (HP1γ) (Homo sapiens (Human)) (UniProt Q13185). In words: cell-based or functional assay.
Assay [2] concerns silent GFP reporter in HeLa TI-C cell clones. Description: GFP reactivation in TI-C silent cell clones (FACS). The following applies: TSA treatment, FACS after 24 hours, vs DMSO control. It is filed as cell-based, human. From the text:
Cells. HeLa cell populations containing silent GFP genes, as described by Katz et al., 2007, J. Virol. 81:2592-2604, were utilized. TI-C cell clones were isolated by cell sorting as described by Katz et al., 2007, J. Virol. 81:2592-2604.
Analysis of GFP expression. GFP expression was quantitated by FACScan as described previously (Greger et al., 2005, J. Virol. 79:4610-4618; Katz et al., 2007, J. Virol. 81:2592-2604; Poleshko et al., 2008, J. Virol. 82:2313-2323).
Evidence for position-independent roles for HDAC1 and Daxx in retroviral reporter gene silencing. To determine if the integration sites of the retroviral DNA are determinants for the participation of specific host factors that control epigenetic silencing, a series of TI-C cell clones was examined. These clones were derived from a pool of cells in which the average GFP copy number was ca. 1 as measured by quantitative real-time PCR (Katz et al., 2007, J. Virol. 81:2592-2604; Poleshko et al., 2008, J. Virol. 82:2313-2323). […] As with the TI-C cell population, transfection with the HDAC1 siRNA pool phenocopied the TSA treatment (compare FIGS. 4A and B). Based on analyses of these clones, it was concluded that HDAC1 and, in most cases, Daxx are required for the maintenance of silencing at independent loci, but the integration site may modulate the extent of reactivation.

Sequence of UniProt Q13185 (Q13185 whole entry): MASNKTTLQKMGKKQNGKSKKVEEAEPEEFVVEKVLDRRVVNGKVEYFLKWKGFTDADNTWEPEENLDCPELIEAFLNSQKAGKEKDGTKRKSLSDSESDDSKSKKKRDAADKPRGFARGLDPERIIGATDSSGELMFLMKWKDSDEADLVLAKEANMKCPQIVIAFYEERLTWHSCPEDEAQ

With “dominant negative form of HP1 (dnHP1) (from UniProt P83916 104-185)”, the GFP-positive cells at 5 days postinfection (FACS) (% GFP-positive cells) in assay [1] was 24.

`CC(/C=C/C(=O)NO)=C\[C@@H](C)C(=O)c1ccc(N(C)C)cc1` [TSA, trichostatin A]: the “GFP reactivation in TI-C cell clones” value in assay [2] was “induced GFP reactivation, but to various degrees”.
